By Kd is commonly meant the free concentration of one partner at which half of the binding sites on the other are occupied at equilibrium, for simple one-to-one binding.

The record followed here is paper PMC11109203 (Nature Communications, 2024).

To fix the notation:
T1: FITC labeled Clr3 (S. pombe, UniProt P56523 1-687, FITC label)
T1 construct: Clr3, histone deacetylase, S. pombe; source: E. coli Rosetta, purified, labeled with the EZLabel Protein FITC Labeling Kit
T1 sequence (looked up): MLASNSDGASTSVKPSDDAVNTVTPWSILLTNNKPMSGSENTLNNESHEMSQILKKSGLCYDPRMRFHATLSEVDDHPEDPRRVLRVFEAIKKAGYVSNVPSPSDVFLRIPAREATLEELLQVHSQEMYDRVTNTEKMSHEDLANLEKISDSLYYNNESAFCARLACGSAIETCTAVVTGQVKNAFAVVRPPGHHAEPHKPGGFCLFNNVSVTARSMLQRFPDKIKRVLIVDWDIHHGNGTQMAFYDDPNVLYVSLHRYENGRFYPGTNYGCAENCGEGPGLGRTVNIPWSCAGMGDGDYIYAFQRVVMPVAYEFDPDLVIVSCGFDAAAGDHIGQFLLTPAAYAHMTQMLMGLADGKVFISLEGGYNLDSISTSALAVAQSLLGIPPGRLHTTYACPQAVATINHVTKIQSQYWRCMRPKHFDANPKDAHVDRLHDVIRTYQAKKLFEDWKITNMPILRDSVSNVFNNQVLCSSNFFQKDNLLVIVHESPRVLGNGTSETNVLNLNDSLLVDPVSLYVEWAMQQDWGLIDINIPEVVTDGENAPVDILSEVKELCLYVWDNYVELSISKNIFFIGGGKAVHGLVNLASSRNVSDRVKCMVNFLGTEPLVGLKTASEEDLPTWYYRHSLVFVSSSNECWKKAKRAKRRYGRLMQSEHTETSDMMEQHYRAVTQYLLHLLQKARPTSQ

B1: GST-Sad1_(1-169) (domain or fragment, S. pombe, UniProt Q09825 1-169, looked up)
chain: MFTNTPVGGKRERQNGAHPAWSTLGANSAQIHQNTADLASKMHKLRYTKIRSPPTRVSIESITPKQRFPAPNFEQAYHSNIRYEQEESDNEEFENVVKNGHEASTNVFYESDGDDEEFVNEEYENSIDEESDDEGYSLNEDTTATNASFRYPMNQRSTRKSQFYSSKFK
notes: pGEX-6P-1 vector; source: E. coli Rosetta, purified (glutathione Sepharose 4B, eluted with reduced glutathione, Superdex); not shown: GST, N-terminal, kept
B2: Sad1_(1-169) (domain or fragment, S. pombe, UniProt Q09825 1-169, looked up)
chain: B1 chain
notes: Cleavage is told in general for proteins not needed with their tag; used in ITC, SEC and MST; also called Sad1NTD; source: E. coli Rosetta, purified (glutathione Sepharose 4B, 3C digestion on beads, Superdex); not shown: GST, N-terminal, cleaved
B3: Sumo-Sir2 fusion protein (enzyme, S. pombe, UniProt O94640 1-475, looked up)
chain: MASNPLDNNMPTTPVEEKIPVASYSPSSSGSSSGASLLVDIMCGSKETEDEEVDSDEWDKPETENISDLDERSEMVRYLRASGYAKFLEKYLIEEELPVRSILKKLGINLPSALEEFEDIDLLPLLKEVLKREVARRIKLPHFNTFEDVVNLLKKAKNVVVLVGAGISTSLGILDFRSDNGFYARLARHGLSEPSEMFDIHTFRENPEIFYTFARDLLPETNHYSPSHAFIRLLEKKNKLSTLFTQNIDNLEKKTGLSDNKIIQCHGSFATATCIKCKHKVDGSELYEDIRNQRVSYCNECGKPPLKLRRVGQNKKEKHYFSDGDSESSEDDLAQPGIMKPDITFFGEALPDSFFNKVGSGELEETDLLICIGTSLKVAPVSELISVIPPTTPQIYISRTPVRHTQFDVNFLSPYCDWVIVEICKRAGWLNELQALCDLPECHSGSKTRAFETDLDIKFEEPSTYHITSTTNGSC
notes: Sir2, histone deacetylase, S. pombe; The legend says that some untagged Sir2 from self-proteolysis was present; source: E. coli Rosetta, purified (Ni-NTA, eluted with imidazole, Superdex); not shown: 6*His-Sumo, N-terminal, kept
B4: Clr3 (untagged) (enzyme, S. pombe, UniProt P56523 1-687, looked up)
chain: T1 sequence (looked up)
notes: Clr3, histone deacetylase, S. pombe; source: E. coli Rosetta, purified (Ni-NTA, Ulp1 digestion, Superdex); not shown: 6*His-Sumo, N-terminal, cleaved
B5: Sad1_(60-169) (domain or fragment, S. pombe, UniProt Q09825 60-169, looked up)
chain: ESITPKQRFPAPNFEQAYHSNIRYEQEESDNEEFENVVKNGHEASTNVFYESDGDDEEFVNEEYENSIDEESDDEGYSLNEDTTATNASFRYPMNQRSTRKSQFYSSKFK
notes: source: E. coli Rosetta, purified; not shown: GST, N-terminal, cleaved
B6: Sad1_(60-169) with charge-reverse mutations of D114 and E117 (domain or fragment)
chain: B5 chain with D55R, E58R
B7: Sad1_(60-169) F118A (domain or fragment, S. pombe, UniProt Q09825 60-169, looked up)
chain: B5 chain with F59A
notes: also called Sad1 F118A; source: E. coli Rosetta, purified; not shown: GST, N-terminal, cleaved

Holding throughout (settings): both partners purified
The assay “Clr3 (untagged)” has as its target B4. Nature of the assay: pull-down; GST-Sad1_(1-169) on glutathione beads with Sumo-Sir2 or untagged Clr3, in the absence of H2AB; same buffer as the histone pull-downs.
In assay [1] the target is T2, S. pombe H2AB fusion protein (H2B_(32-126)-H2A_(15-108)) (S. pombe, UniProt P04913 32-126; P04909 15-108).
T2 construct: histone H2A, S. pombe, residues 15-108; No linker between the two parts is told; Modified pCDF-Duet vector, His tag followed by a 3C site; also called single-chain fusion of H2A and H2B; H2A-H2B fusion protein; source: E. coli Rosetta, purified (3C digestion, Superdex); not shown: 6*His, N-terminal, cleaved
T2 sequence (P04913 other isoform, or with tags, fused parts or gaps): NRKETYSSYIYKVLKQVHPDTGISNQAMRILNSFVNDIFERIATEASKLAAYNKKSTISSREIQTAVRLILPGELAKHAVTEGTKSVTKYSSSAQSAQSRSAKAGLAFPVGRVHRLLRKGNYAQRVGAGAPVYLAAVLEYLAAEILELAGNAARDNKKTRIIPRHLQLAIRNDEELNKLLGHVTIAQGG
The assay can be described thus: ITC; MicroCal ITC200, 20 °C; 25 mM Tris-HCl pH 8.0, 400 mM NaCl, 2 mM DTT; Sad1 (500 μM) titrated into H2AB (50 μM). For orientation: ITC needs no label: the signal is the heat of the interaction.

Another assay addresses T1, FITC labeled Clr3. Nature of the assay: MST; Monolith NT.115; 25 mM HEPES pH 7.5, 150 mM NaCl, 2 mM DTT; 20 nM FITC labeled Clr3; ligands (500 μM Sad1_(1-169) or 250 μM Sad1_(1-169)-H2AB complex) diluted by 12 gradients; medium MST power, 80% LED.
Assay [2] concerns the target T3, GST-Sad1_(1-169) with H2AB (Sad1-H2AB complex of the pull-downs) (S. pombe, UniProt Q09825 1-169; P04913 32-126; P04909 15-108).
T3 construct: histone H2A, S. pombe, residues 15-108; m1 with m5; source: E. coli Rosetta, purified proteins mixed; not shown: GST, N-terminal, kept; 6*His, N-terminal, cleaved
Nature of the assay: pull-down; GST-Sad1_(1-169) on glutathione beads with silencing factors in the presence of H2AB; same buffer as the histone pull-downs.

Where a chain is given by its changes, count along the chain named. Numbers in names are those of the source.

T3 sequence (P04913 other isoform, or with tags, fused parts or gaps): as above

Take B1: the binding result with Clr3 (untagged) is given as “binds”. B2 registered a Kd in assay [1] of 9.5 µM. Also, in the assay with FITC labeled Clr3, the binding result was “binds”.

As to B3, in assay [2], the binding result was “binds”.

Regarding B4, the binding result in assay [2] is recorded as “binds”.

B5: the binding result in assay [1] was “binds”. For B6, in assay [1], the “fold decrease of binding affinity against wild-type Sad1_(60-169)” value is 5.6 fold.

In the case of B7, the binding result in assay [1] was “binds”.
